Data as given in patent US20100144636A1, “PEPTIDES DERIVED FROM RAS-P21 AND USES THEREFOR” (THE RESEARCH FOUNDATION OF STATE UNIVERSITY OF NEW YORK, priority 2008, published 2010).

Assays:
[1] = tested on: oncogenic (Val 12-containing) ras-p21-induced oocyte maturation; assay: Oncogenic ras-p21-induced oocyte maturation (GVBD); format: cell-based, Xenopus laevis; conditions: injected/co-injected with oncogenic ras-p21 into oocytes
Text: (§1) The Applicants have synthesized both of the inventive peptides, referred to as PNC-7 and PNC-2, and assayed them for their abilities to block oncogenic ras-p21 induction of maturation of Xenopus laevis oocytes. Injection of oncogenic, but not wild-type ras-p21, into these oocytes induce oocyte maturation, i.e., completion of the second meiotic division, as measured by germinal vesicle membrane breakdown (GVBD). Insulin also induces oocyte maturation in a manner that requires activation of endogenous wild-type ras-p21.

[2] = tested on: insulin-induced oocyte maturation; assay: Insulin-induced oocyte maturation (activated wild-type ras-p21); format: cell-based, Xenopus laevis; conditions: oocytes induced to mature with insulin
Text: as §1

| Molecule | inhibition of oncogenic ras-p21-induced oocyte maturation [1] | inhibition of insulin-induced oocyte maturation [2] |
| --- | --- | --- |
| MKP-1T4: MAPK phosphatase that de-activates this kinase (protein, UniProt P28562 1-367, looked up) Dual specificity protein …: MVMEVGTLDAGGLRALLGERAAQCLLLDCRSFFAFNAGHIAGSVNVRFSTIVRRRAKGAMGLEHIVPNAELRGRLLAGAYHAVVLLDERSAALDGAKRDGTLALAAGALCREARAAQVFFLKGGYEAFSASCPELCSKQSTPMGLSLPLSTSVPDSAESGCSSCSTPLYDQGGPVEILPFLYLGSAYHASRKDMLDALGITALINVSANCPNHFEGHYQYKSIPVEDNHKADISSWFNEAIDFIDSIKNAGGRVFVHCQAGISRSATICLAYLMRTNRVKLDEAFEFVKQRRSIISPNFSFMGQLLQFESQVLAPHCSAEAGSPAMAVLDRGTSTTTVFNFPVSIPVHSTNSALSYLQSPITTSPSC | completely blocks | considerably less effect |
| GST-pi: glutathione-S-transferase, pi isozyme, selective inhibitor of JNK-induced phosphorylation of jun (protein, UniProt P09211 2-210, looked up) Glutathione S-transferase P: PPYTVVYFPVRGRCAALRMLLADQGQSWKEEVVTVETWQEGSLKASCLYGQLPKFQDGDLTLYQSNTILRHLGRTLGLYGKDQQEAALVDMVNDGVEDLRCKYISLIYTNYEAGKDDYVKALPGQLKPFETLLSQNQGGKTFIVGDQISFADYNLLDLLLIHEVLAPGCLDAFPLLSAYVGRLSARPKLKAFLASPEYVNLPINGNGKQ | complete inhibition of oocyte maturation | no effect |
